What all share (conditions): protein: recombinant; tags: His6; Alexa647 label; chain copies: 2; label: 5' biotin strand 1; Cy3B on strand 2 (position 13); blunt
Series [1] addresses T1, CAP (catabolite activator protein), Alexa647-CAP (UniProt P0ACJ8 2-210, H18C;C179S). Description: single-molecule TIRF (koff/kon); 0.2 mM cAMP, 10 mM Mg2+; kon 9.73e6 M-1s-1, t2 8.45 s; 1.5 nM CAP, 0.2 mM cAMP, 40 mM Tris pH 8, 100 mM KCl, 10 mM MgCl2, 5% glycerol, 1 mM TROLOX, glucose oxidase/catalase oxygen scavenger (Methods also lists 40% glucose), 27-30 C.
Series [2] deals with T1, CAP (catabolite activator protein), …. Description: single-molecule TIRF (koff/kon); 0.2 mM cAMP, 10 mM Mg2+; kon 8.74e6 M-1s-1, t2 5.2 s; 1.5 nM CAP, 0.2 mM cAMP, 40 mM Tris pH 8, 100 mM KCl, 10 mM MgCl2, 5% glycerol, 1 mM TROLOX, glucose oxidase/catalase oxygen scavenger (Methods also lists 40% glucose), 27-30 C.
Series [3] shares this target. Description: single-molecule TIRF (koff/kon); 0.2 mM cAMP, 10 mM Mg2+; kon 10.24e6 M-1s-1, t2 3.3 s; 1.5 nM CAP, 0.2 mM cAMP, 40 mM Tris pH 8, 100 mM KCl, 10 mM MgCl2, 5% glycerol, 1 mM TROLOX, glucose oxidase/catalase oxygen scavenger (Methods also lists 40% glucose), 27-30 C.

B1: CAPcons DNA (GSeq-CAP-(1-49)) (dsDNA)
DNA 1: GTGCCTAAAATGTGATCTAGATCACATTTATTGCGTAGAGCTCACTGCC
DNA 2: GGCAGTGAGCTCTACGCAATAAATGTGATCTAGATCACATTTTAGGCAC
Consider B1, for which, in series [1], the Kd was around 12 nM.

B2: CAPmut1 DNA (GP25/CP25) (dsDNA)
DNA 1: GTGCCTAAAATGTGATCTAGATCAGATTTATTGCGTAGAGCTCACTGCC
DNA 2: GGCAGTGAGCTCTACGCAATAAATCTGATCTAGATCACATTTTAGGCAC
Turning to B2, the equilibrium dissociation constant (Kd) in series [2] was around 22 nM.

B3: CAPmut2 DNA (GP25,CP38) (dsDNA)
DNA 1: GTGCCTAAAATCTGATCTAGATCAGATTTATTGCGTAGAGCTCACTGCC
DNA 2: GGCAGTGAGCTCTACGCAATAAATCTGATCTAGATCAGATTTTAGGCAC
With B3, in series [3], the dissociation constant (Kd) was around 30 nM.

For the origin of these results see article doi:10.1101/2022.02.27.482175, “Transient DNA binding to gapped DNA substrates links DNA sequence to the single-molecule kinetics of protein-DNA interactions”.
